pKd: −log10 of the molar value.

For the test, the target named is TLR5^N14, a truncated human TLR5 construct containing only the D1-domain binding sites (human) (UniProt O60602). Briefly: SPR. In general terms: In SPR one partner is held on a chip, and binding of the other changes the refractive index at the surface.
Sequence of UniProt O60602 (O60602 21-639): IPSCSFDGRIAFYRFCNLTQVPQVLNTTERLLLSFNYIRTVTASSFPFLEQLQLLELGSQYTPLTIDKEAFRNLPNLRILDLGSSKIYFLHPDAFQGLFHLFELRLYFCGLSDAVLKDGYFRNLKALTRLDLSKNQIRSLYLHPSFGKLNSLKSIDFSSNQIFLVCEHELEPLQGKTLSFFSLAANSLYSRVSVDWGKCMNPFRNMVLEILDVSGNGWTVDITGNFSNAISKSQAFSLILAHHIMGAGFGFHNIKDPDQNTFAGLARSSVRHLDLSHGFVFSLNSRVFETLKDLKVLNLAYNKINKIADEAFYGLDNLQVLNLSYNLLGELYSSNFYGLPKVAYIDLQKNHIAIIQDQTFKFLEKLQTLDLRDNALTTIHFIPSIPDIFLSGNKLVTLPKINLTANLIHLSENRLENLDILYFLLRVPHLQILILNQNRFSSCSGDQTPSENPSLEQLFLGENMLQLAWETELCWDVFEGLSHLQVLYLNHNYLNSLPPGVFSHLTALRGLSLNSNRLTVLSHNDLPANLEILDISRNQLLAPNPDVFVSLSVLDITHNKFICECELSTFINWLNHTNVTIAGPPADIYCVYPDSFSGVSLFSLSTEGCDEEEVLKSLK
On to “RhFlaB-PIM, primary interface mutant of RhFlaB (Q88A, R89A, Q96A) (from UniProt G2T5W2 1-506) (natural protein)”, for which the pKd (usually the Kd on a negative log10 scale, so that one unit is a factor of ten) was 7.11; the koff (as a rule, a measure of how fast the partners let go of each other) worked out at 0.000691 s⁻¹; the on-rate (kon) (usually the rate constant with which the complex forms) came to 9090 M⁻¹ s⁻¹.
For the substance “RhFlaB-ΔD0, RhFlaB truncated to remove the D0 domain (domain or fragment)”, the on-rate constant (kon) was determined as 75500 M⁻¹ s⁻¹.
In turn, “RhFlaB, flagellin FlaB of Roseburia hominis, wild type (recombinant) (from UniProt G2T5W2 1-506) (natural protein)” showed a pKd of 7.94, a koff of 0.000555 s⁻¹ and a kon of 45200 M⁻¹ s⁻¹.
The matching figures for “StFliC-PIM, primary interface mutant of StFliC (Q89A, R90A, Q97A) (natural protein)”: 6.23, 0.011 s⁻¹ and 18800 M⁻¹ s⁻¹.
On to “StFliC, flagellin FliC of Salmonella enterica serovar Typhimurium, wild type (from UniProt P06179 1-495) (natural protein)”, for which the pKd was 7.79, the koff turned out to be 0.000192 s⁻¹ and the kon is 11300 M⁻¹ s⁻¹.

Values taken from paper doi:10.1101/2024.12.09.627598.
